Test results reported in US20200190192A1 (SUTRO BIOPHARMA, published 2020).
Like-named read-outs stand apart in the source and are kept apart here.

Assays:
[1] = target: T1, cynomolgus Tim-3 expressed on CHO cells (cynomolgus monkey); assay: flow cytometry, CHO-cyno Tim-3 cells
T1 construct: also called cTim-3; Cyno Tim-3 (CHO)
T1 chain: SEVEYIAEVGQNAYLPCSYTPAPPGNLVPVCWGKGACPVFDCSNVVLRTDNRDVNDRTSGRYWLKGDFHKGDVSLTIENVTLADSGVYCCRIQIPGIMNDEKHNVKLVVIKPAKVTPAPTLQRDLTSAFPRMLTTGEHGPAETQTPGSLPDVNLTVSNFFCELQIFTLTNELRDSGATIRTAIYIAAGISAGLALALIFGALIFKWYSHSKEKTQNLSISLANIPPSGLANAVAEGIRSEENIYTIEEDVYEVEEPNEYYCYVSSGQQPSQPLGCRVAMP

[2] = target: T2, human Tim-3 expressed on the cell surface (human, UniProt Q8TDQ0 22-301); assay: flow cytometry, CHO-human Tim-3 cells
T2 construct: also called hTim-3; Human Tim-3 (CHO)

[3] = target: T3, recombinant human Tim-3-Fc (R&D Systems, 2365-TM) (human, UniProt Q8TDQ0 22-202, biotinylated in the Galectin-9 competition ELISA (sites not given)); assay: SPR Biacore, human Tim-3 Fc; KD estimated;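 on koff: antibodies captured on an anti-FLAG sensor surface, Tim-3-Fc flowed over as analyte at 25 °C in HBS-EP+ buffer, rates fit with a 1:1 Langmuir model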
T3 construct: Bought protein; also called huTim-3-Fc; biotinylated Tim-3-Fc; not shown: Fc of the bought fusion protein

[4] = target: T3, recombinant human Tim-3-Fc (R&D …); assay: SPR Biacore, human Tim-3 Fc
[5] = target: T3, recombinant human Tim-3-Fc (R&D …); assay: competition ELISA, biotin-Tim-3-Fc vs coated Galectin-9
[6] = target: T2, human Tim-3 expressed on the cell …; assay: flow cytometry, activated human CD4+ T cells
[7] = target: T3, recombinant human Tim-3-Fc (R&D …); assay: competition ELISA, biotin-Tim-3-Fc vs coated Galectin-9; remark: listed apart in the source
[8] = target: T3, recombinant human Tim-3-Fc (R&D …); assay: ELISA, coated human Tim-3-Fc
[9] = target: T2, human Tim-3 expressed on the cell …; assay: flow cytometry, CHO-human Tim-3 cells; remark: listed apart in the source
[10] = target: T2, human Tim-3 expressed on the cell …; assay: cell binding (flow cytometry; cells not given)
[11] = target: T4, human Tim-3 (Biacore analyte; TIM-3-Fc or TIM-3-HIS, not said which) (human, UniProt Q8TDQ0 22-202); assay: SPR Biacore, human Tim-3 (Fc or HIS not said)
T4 construct: also called TIM-3 antigen; not shown: Fc or HIS tag

[12] = target: T5, recombinant cynomolgus Tim-3-Fc (R&D Systems, 7914-TM) (cynomolgus monkey); assay: ELISA, coated cyno Tim-3-Fc
T5 construct: Bought protein; also called cyTim-3-Fc; Cyno Tim-3-Fc; not shown: Fc of the bought fusion protein
T5 chain: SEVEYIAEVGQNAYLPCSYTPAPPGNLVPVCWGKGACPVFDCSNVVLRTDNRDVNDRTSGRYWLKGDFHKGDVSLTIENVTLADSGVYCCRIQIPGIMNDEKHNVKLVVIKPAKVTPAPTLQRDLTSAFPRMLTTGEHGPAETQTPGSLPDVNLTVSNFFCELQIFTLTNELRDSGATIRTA

[13] = target: T3, recombinant human Tim-3-Fc (R&D …); assay: SPR Biacore, human Tim-3-Fc
[14] = target: T6, biotinylated recombinant human PD-1 (AcroBiosystems) (human, UniProt Q15116 25-167, limits assumed, biotinylated (sites not given)); assay: competition, flow cytometry: biotin-PD-1 binding to CHO-human PD-L1 cells
T6 construct: Bought protein; also called biotinylated PD-1

[15] = target: T7, human PD-1 expressed on CHO cells (human, UniProt Q15116 25-288); assay: flow cytometry, CHO-human PD-1 cells; design: Bmax: unit not given here
T7 construct: also called hPD-1; CHO-hPD-1

[16] = target: T4, human Tim-3 (Biacore analyte; TIM-3-Fc …); assay: SPR, Tim-3 analyte
[17] = target: T2, human Tim-3 expressed on the cell …; assay: flow cytometry, CHO-human Tim-3 cells; design: Bmax: unit not given here
[18] = target: T1, cynomolgus Tim-3 expressed on CHO cells; assay: flow cytometry, CHO-cyno Tim-3 cells
[19] = target: T3, recombinant human Tim-3-Fc (R&D …); assay: competition ELISA, biotin-Tim-3-Fc vs coated Galectin-9; remark: listed apart in the source

B1: h22E11-VK4-1 × h22E11-VH3-23 (antibody, V domains shown)
VH: EVQLLESGGGLVQPGGSLRLSCAVSGFSLTSYGVHWVRQAPGKGLEWLVVIWSDGSTTYNDSVKGRFTISKDNSKNTVYLQMNSLRAEDTAVYYCARQGGYRYDDAMDYWGQGTLVTVSS
VL: DIVLTQSPDSLAVSLGERATINCKASQSVDYDGNSYVNWYQQKPGQPPKLLIYAASNLESGVPDRFSGSGSGTDFTLTISSLQAEDVAVYYCQQSNEDPYTFGQGTKVEIK
notes: Humanized m22E11
[1]
  Kd: 4.6 nM
[2]
  Kd: 0.9 nM
[3]
  Kd: 5 nM
[4]
  koff: 0.000875 s⁻¹
[5]
  IC50: 0.67 nM
[6]
  Kd: 0.9 nM

B2: h22E11-VK3-11 × h22E11-5-IgG-HC (antibody, V domains shown)
VH: EVQLVESGGGLVQPGGSLRLSCAVSGFSLTSYGVHWVRQAPGKGLEWLVVIWSDGSTTYNSALKSRFTISKDNAKNSVYLQMNSLRAEDTAVYYCARQGGYRYDDAMDYWGQGTLVTVSS
VL: EIVLTQSPATLSLSPGERATLSCKASQSVDYDGNSYVNWYQQKPGQAPRLLIYAASNLESGIPARFSGSGSGTDFTLTISSLEPEDFAVYYCQQSNEDPYTFGQGTKVEIK
notes: Humanized m22E11
[1]
  Kd: 5.3 nM
[2]
  Kd: 0.8 nM
[3]
  Kd: 5.9 nM
[4]
  koff: 0.00104 s⁻¹
[5]
  IC50: 0.64 nM
[6]
  Kd: 1.1 nM

B3: h22E11-5-IgG-LC × h22E11-5-IgG-HC (antibody, V domains shown)
VH: EVQLVESGGGLVQPGGSLRLSCAVSGFSLTSYGVHWVRQAPGKGLEWLVVIWSDGSTTYNSALKSRFTISKDNAKNSVYLQMNSLRAEDTAVYYCARQGGYRYDDAMDYWGQGTLVTVSS
VL: EIVLTQSPGTLSLSPGERATLSCKASQSVDYDGNSYVAWYQQKPGQAPRLLIYAASNLESGIPDRFSGSGSGTDFTLTISRLEPEDFAVYYCQQSNEDPYTFGQGTKVEIK
notes: Humanized m22E11; also called h22E11-5 IgG (lot 2)
[2]
  Kd: 1 nM
[3]
  Kd: 6.8 nM
[4]
  koff: 0.0011 s⁻¹
[5]
  IC50: 0.77 nM

B4: SRP1497-A05 (antibody, V domains shown)
VH: EVQLVESGGGLVQPGGSLRLSCAASGFNISNYAIHWVRQAPGKGLEWVADITPDGGYTDYADSVKDRFTISADTSKNTAYLQMNSLRAEDTAVYYCARGYVYRMWDSFDYWGQGTLVTVSS
VL: not shown
notes: IgG with trastuzumab LC; HIS- and FLAG-tagged
[7]
  IC50: 1.1 nM
[8]
  EC50: 0.24 nM
[9]
  Kd: 0.5 nM
[10]
  Kd: 5.6 nM
[11]
  Kd: 64.7 nM
  koff: 0.0219 s⁻¹
  kon: 338000 M⁻¹ s⁻¹
[12]
  EC50: 6.19 nM
[13]
  Kd: 2.27 nM
  koff: 0.000458 s⁻¹
  kon: 202000 M⁻¹ s⁻¹

B5: SRP1497-A02 (antibody, V domains shown)
VH: EVQLVESGGGLVRPGGSLRLSCAASGFNISNYAIHWVRQAPGKGLEWVADITPDGGYTDYADSVKGRFTISADTSKNTAYLQMNSLRAEDTAVYYCARGYVYRMWDSFDYWGQGTLVTVSS
VL: not shown
notes: as for B4
[7]
  IC50: 1 nM
[8]
  EC50: 0.34 nM
[10]
  Kd: 1.54 nM
[12]
  EC50: 13.7 nM
[13]
  Kd: 2.95 nM
  koff: 0.000544 s⁻¹
  kon: 185000 M⁻¹ s⁻¹

B6: 1353-G10 scFvFc-zwB × 1649-A01 Hc zwA S30D/TrstmbLC S56D (bispecific antibody)
scFv: not shown
VH: EVQLVESGGGLVQPGGSLRLSCAASGFNIDRYYIHWVRQAPGKGLEWVAGITPVRGYTEYADSVKDRFTISADTSKNTAYLQMNSLRAEDTAVYYCARGYVYRMWDSYDYWGQGTLVTVSS
VL: not shown
notes: Tim-3 heavy chain with zwA CH3 mutations
[14]
  IC50: 128 nM
[15]
  Bmax: 12500
  Kd: 1.3 nM
[16]
  Kd: 7.1 nM
[17]
  Bmax: 11700
  Kd: 3.2 nM

B7: SRP1497-A01 (antibody, V domains shown)
VH: EVQLVESGGGLVQPGGSLRLSCAASGFNISNYAIHWVRQAPGKGLEWVADITPDGGYTDYADSVKGRFTISADTSKNTAYLQMNSLRAEDTAVYYCARGYVYRMWDSFDYWGQGTLVTVSS
VL: not shown
notes: IgG with trastuzumab LC, cell-free expressed; constructs were HIS- and FLAG-tagged
[7]
  IC50: 0.8 nM
[8]
  EC50: 0.3 nM
[10]
  Kd: 1.17 nM
[12]
  EC50: 22.6 nM
[13]
  Kd: 2.15 nM
  koff: 0.000425 s⁻¹
  kon: 197000 M⁻¹ s⁻¹

B8: SRP1649-A01 (antibody, V domains shown)
VH: EVQLVESGGGLVQPGGSLRLSCAASGFNISRYYIHWVRQAPGKGLEWVAGITPVRGYTEYADSVKDRFTISADTSKNTAYLQMNSLRAEDTAVYYCARGYVYRMWDSYDYWGQGTLVTVSS
VL: not shown
notes: as for B4
[18]
  Kd: 0.5 nM
[9]
  Kd: 0.4 nM
[11]
  Kd: 17.4 nM
  koff: 0.00117 s⁻¹
  kon: 67100 M⁻¹ s⁻¹
[19]
  IC50: 0.26 nM

B9: 1353-G10 scFvFc-zwB × 1649-A01 Hc zwA R31D/TrstmbLC S56D (bispecific antibody)
scFv: not shown
VH: EVQLVESGGGLVQPGGSLRLSCAASGFNISDYYIHWVRQAPGKGLEWVAGITPVRGYTEYADSVKDRFTISADTSKNTAYLQMNSLRAEDTAVYYCARGYVYRMWDSYDYWGQGTLVTVSS
VL: not shown
notes: as for B6
[14]
  IC50: 117 nM
[15]
  Bmax: 14000
  Kd: 2.7 nM
[16]
  Kd: 8.6 nM
[17]
  Bmax: 11300
  Kd: 3.5 nM

B10: 1353-G10 scFvFc-zwB × 1649-A01 Hc zwA R31D/Y56D/TrstmbLC S56D (bispecific antibody)
scFv: not shown
VH: EVQLVESGGGLVQPGGSLRLSCAASGFNISDYYIHWVRQAPGKGLEWVAGITPVRGDTEYADSVKDRFTISADTSKNTAYLQMNSLRAEDTAVYYCARGYVYRMWDSYDYWGQGTLVTVSS
VL: not shown
[14]
  IC50: 148 nM
[15]
  Bmax: 12600
  Kd: 1.6 nM
[16]
  Kd: 8.8 nM
[17]
  Bmax: 11400
  Kd: 3.3 nM

B11: 1353-G10 scFvFc-zwB × 1649-A01 Hc zwA S30D/R31D/TrstmbLC S56D (bispecific antibody)
scFv: not shown
VH: EVQLVESGGGLVQPGGSLRLSCAASGFNIDDYYIHWVRQAPGKGLEWVAGITPVRGYTEYADSVKDRFTISADTSKNTAYLQMNSLRAEDTAVYYCARGYVYRMWDSYDYWGQGTLVTVSS
VL: not shown
notes: as for B6
[14]
  IC50: 138 nM
[15]
  Bmax: 9860
  Kd: 1.1 nM
[16]
  Kd: 8.7 nM
[17]
  Bmax: 10500
  Kd: 3.7 nM

B12: SRP1649-F06 (antibody, V domains shown)
VH: EVQLVESGGGLVQPGGSLRLSCAASGFNIGNYAIHWVRQAPGKGLEWVADITPGQGYTEYADSVKDRFTISADTSKNTAYLQMNSLRAEDTAVYYCARGYVYRMWDSYDYWGQGTLVTVSS
VL: not shown
notes: as for B4
[18]
  Kd: 5.6 nM
[9]
  Kd: 0.2 nM
[11]
  Kd: 17.3 nM
  koff: 0.00393 s⁻¹
  kon: 227000 M⁻¹ s⁻¹
[19]
  IC50: 0.63 nM

B13: 1353-G10 scFvFc-zwB × 1649-A01 Hc zwA S30D/R31D/Y56D/TrstmbLC S56D (bispecific antibody)
scFv: not shown
VH: EVQLVESGGGLVQPGGSLRLSCAASGFNIDDYYIHWVRQAPGKGLEWVAGITPVRGDTEYADSVKDRFTISADTSKNTAYLQMNSLRAEDTAVYYCARGYVYRMWDSYDYWGQGTLVTVSS
VL: not shown
notes: as for B6
[14]
  IC50: 147 nM
[15]
  Bmax: 13000
  Kd: 2.1 nM
[16]
  Kd: 11 nM
[17]
  Bmax: 10900
  Kd: 4.3 nM

B14: 1353-G10 scFvFc-zwB × 1649-A01 Hc zwA S30D/Y56D/TrstmbLC S56D (bispecific antibody)
scFv: not shown
VH: EVQLVESGGGLVQPGGSLRLSCAASGFNIDRYYIHWVRQAPGKGLEWVAGITPVRGDTEYADSVKDRFTISADTSKNTAYLQMNSLRAEDTAVYYCARGYVYRMWDSYDYWGQGTLVTVSS
VL: not shown
notes: Tim-3 heavy chain with zwA CH3 mutations; also called 1649-A01 Hc zwA S30D/Y56D/TrsimbLC S56D
[14]
  IC50: 108 nM
[15]
  Bmax: 9650
  Kd: 1.2 nM
[16]
  Kd: 9.7 nM
[17]
  Bmax: 10000
  Kd: 3.6 nM
